Results from patent publication US8541236B2, “Mutant apolipoprotein A-1 polypeptide with increased resistance to oxidation and reactive carbonyls” (University of Washington, priority 2006, dated 2013).
“Also recorded” adds a separate entry of the source.

What was measured:
ABCA1 [1] = molecular target: T1, ABCA1 (Homo sapiens, UniProt O95477); parameters: expressed in transfected cells; host or cells: BHK (baby hamster kidney) cells; conditions: cited from earlier work
[2] = tested on: Baby Hamster Kidney (BHK) cells transfected with a transfection vector alone (Mock); assay: 3H-cholesterol efflux from Mock-transfected BHK cells (ABCA1-independent, Example 11); format: cell-based; conditions: 20 μg/ml peptide, HOCl-treated (5 molar ratio HOCl to peptide), 4 hours
Protocol: (§1) Baby Hamster Kidney (BHK) cells were transfected with a cDNA expressing ABCA1 (ABCA1) or with a transfection vector alone (Mock). The transfected cells were radiolabeled with ^3H-cholesterol, washed and then incubated for 4 hours with media containing 20 μg/ml untreated or HOCl-treated (5 molar ratio HOCl to peptide) peptide 2F (SEQ ID NO:9). At the end of the incubation, the amount of ^3H-cholesterol (efflux) released from the cells was measured and expressed as the percent total (media plus cells) ^3H-cholesterol.

ABCA1 [3] = molecular target: T1, ABCA1; assay: 3H-cholesterol efflux from ABCA1-transfected BHK cells, 4 hour incubation with peptide (Example 11); format: cell-based; parameters: expressed in transfected cells; host or cells: BHK (baby hamster kidney) cells; conditions: 20 μg/ml peptide, HOCl-treated (5 molar ratio HOCl to peptide)
Protocol: as §1

ABCA1 [4] = molecular target: T1, ABCA1; assay: Radiolabeled cholesterol efflux assay from ABCA1-transfected BHK cells; format: cell-based; parameters: expressed in transfected cells; host or cells: BHK (baby hamster kidney) cells, mifepristone-inducible GeneSwitch system; conditions: for cholesterol efflux promoted: after oxidation by the MPO system
Protocol: The effect of oxidant treatment of apoA-I on the ability of apoA-I to promote cholesterol efflux from cells via the ABCA1 pathway was measured as follows.
A radiolabeled cholesterol efflux assay from ABCA1-transfected cells was carried out as described in Shao, et al., J. Biol. Chem. 280(7):5983-5993, 2005. Briefly described, baby hamster kidney (BHK) cells expressing mifepristone-inducible human ABCA1 were generated as described in Vaughan, A. M., et al., J. Lipid. Res. 44:1373-1380, 2003. Cellular cholesterol was labeled by adding 1 μCi/ml [^3H]cholesterol (Perkin Elmer Life Sciences) to the growth medium. Twenty-four hours later, strong expression of ABCA1 was induced by incubating the cells for 20 h with Dulbecco's modified Eagle's medium containing 1 mg/ml bovine serum albumin and 1 nM mifepristone. To measure cholesterol efflux, mock or ABCA1-transfected cells were incubated with Dulbecco's modified Eagle's medium/bovine serum albumin with or without apoA-I treated under the following conditions:
(1) purified apoA-I was treated for 1 hour with increasing concentrations of HOCl, H2O2 with MPO plus NACl, ONOO, or H2O2 with MPO plus NO2;
(2) purified apoA-I was treated for 24 hours with a molar ratio (mol:mol) of 0, 1:25, or 1:50 of acrolein; and
(3) peptide 2F was treated for 1 hour with a 25 molar excess of HOCl.
After 2 hour incubations with apoA-I, the medium and cells were assayed for [^3H]cholesterol as described in Vaughan, A. M., et al., J. Lipid. Res. 44:1373-1380, 2003. Cholesterol efflux mediated by apoA-I was calculated as the percentage of total [^3H]cholesterol (medium plus cells) released into the medium after subtracting the value obtained with Dulbecco's modified Eagle's medium/bovine serum albumin alone. Acrolein adducts of K226 were measured by MS.
BHK cells transfected with a mifepristone-inducible GeneSwitch (Invitrogen) system containing a human ABCA1 cDNA were incubated with serum-free medium with or without 10 nM mifipristone for 24 h to generate cells expressing virtually no or high levels of ABCA1, respectively (see Vaughan, A. M., and J. F. Oram, J. Lipid Res. 44:1373-1380, 2003). To radiolabel cellular cholesterol, [^3H]cholesterol was added to the acetyl LDL medium for macrophages and the growth medium prior to ABCA1 induction for BHK cells. Efflux of [^3H]cholesterol was measured after a 2 h incubation in medium with or without apoA-I (Tang, C., et al., J. Biol. Chem. 279:7622-7628, 2004).

[5] = ESI-MS analysis of chlorination after incubation with HOCl; format: physicochemical; conditions: incubated in the presence of HOCl
[6] = Denaturing SDS-PAGE analysis of oxidant-treated apoA-I; format: physicochemical
Protocol: In order to analyze the effects of HOCl and acrolein on apoA-I structure, purified apoA-I was treated with a molar ratio of HOCl at mol:mol concentrations of 0, 5, 10, or 25; or with a molar ratio of acrolein at mol:mol concentrations of 0, 1, 2, 5, 10, or 20.

[7] = Far UV circular dichroism of HOCl-treated apoA-I; format: physicochemical; conditions: treated 1 hour with HOCl
Protocol: Secondary structure of apoA-I was determined using far UV circular dichroism.

[8] = Thioflavin T binding assay and electron microscopy for amyloid formation; format: physicochemical
Protocol: A thioflavin T binding assay was used to investigate whether chlorination of apoA-I promotes amyloid formation. Thioflavin T is known to bind rapidly to amyloid fibrils and undergoes a dramatic increase in fluorescence at 485 nm upon excitation at 455 nm (see Naiki, H., et al., Anal. Biochem. 177:244-249, 1989). apoA-I was chlorinated by treatment with HOCl or the MPO system and a time course of thioflavin T binding to treated apoA-I was carried out over 60 minutes as shown in FIG. 6B.

[9] = molecular target: T2, Lecithin Cholesterol Acyltransferase (LCAT) (Homo sapiens, UniProt P04180); assay: Activation of LCAT after oxidation with MPO; format: biochemical; conditions: apoA-I exposed to MPO
T2 sequence (P04180 25-440): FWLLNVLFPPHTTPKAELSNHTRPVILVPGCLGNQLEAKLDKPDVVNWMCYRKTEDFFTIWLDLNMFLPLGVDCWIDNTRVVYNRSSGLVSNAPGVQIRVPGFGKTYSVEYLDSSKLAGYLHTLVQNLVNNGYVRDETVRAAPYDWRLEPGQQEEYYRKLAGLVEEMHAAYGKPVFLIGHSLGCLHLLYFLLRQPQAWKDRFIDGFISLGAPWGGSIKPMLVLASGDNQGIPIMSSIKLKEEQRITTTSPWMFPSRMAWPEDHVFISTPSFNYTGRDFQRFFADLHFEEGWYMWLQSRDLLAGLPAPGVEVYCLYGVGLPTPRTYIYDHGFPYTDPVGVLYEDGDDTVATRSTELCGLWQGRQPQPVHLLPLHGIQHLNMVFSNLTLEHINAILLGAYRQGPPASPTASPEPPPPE
Protocol: Reactions with isolated HDL (1 mg protein/ml) were carried out at 37° C. for 1 h in 50 mM sodium phosphate buffer (pH 7.4) containing 100 uM DTPA and 100 nM MPO. Reactions were initiated by adding hydrogen peroxide and terminated by adding a 20-fold molar excess (relative to peroxide) of Met.

ABCA1 [10] = molecular target: T1, ABCA1; assay: Radiolabeled cholesterol efflux assay from ABCA1-transfected BHK cells; format: cell-based; parameters: expressed in transfected cells; host or cells: BHK (baby hamster kidney) cells, mifepristone-inducible GeneSwitch system; conditions: apoA-I treated with increasing concentrations of MDA

T1 sequence (O95477 whole entry): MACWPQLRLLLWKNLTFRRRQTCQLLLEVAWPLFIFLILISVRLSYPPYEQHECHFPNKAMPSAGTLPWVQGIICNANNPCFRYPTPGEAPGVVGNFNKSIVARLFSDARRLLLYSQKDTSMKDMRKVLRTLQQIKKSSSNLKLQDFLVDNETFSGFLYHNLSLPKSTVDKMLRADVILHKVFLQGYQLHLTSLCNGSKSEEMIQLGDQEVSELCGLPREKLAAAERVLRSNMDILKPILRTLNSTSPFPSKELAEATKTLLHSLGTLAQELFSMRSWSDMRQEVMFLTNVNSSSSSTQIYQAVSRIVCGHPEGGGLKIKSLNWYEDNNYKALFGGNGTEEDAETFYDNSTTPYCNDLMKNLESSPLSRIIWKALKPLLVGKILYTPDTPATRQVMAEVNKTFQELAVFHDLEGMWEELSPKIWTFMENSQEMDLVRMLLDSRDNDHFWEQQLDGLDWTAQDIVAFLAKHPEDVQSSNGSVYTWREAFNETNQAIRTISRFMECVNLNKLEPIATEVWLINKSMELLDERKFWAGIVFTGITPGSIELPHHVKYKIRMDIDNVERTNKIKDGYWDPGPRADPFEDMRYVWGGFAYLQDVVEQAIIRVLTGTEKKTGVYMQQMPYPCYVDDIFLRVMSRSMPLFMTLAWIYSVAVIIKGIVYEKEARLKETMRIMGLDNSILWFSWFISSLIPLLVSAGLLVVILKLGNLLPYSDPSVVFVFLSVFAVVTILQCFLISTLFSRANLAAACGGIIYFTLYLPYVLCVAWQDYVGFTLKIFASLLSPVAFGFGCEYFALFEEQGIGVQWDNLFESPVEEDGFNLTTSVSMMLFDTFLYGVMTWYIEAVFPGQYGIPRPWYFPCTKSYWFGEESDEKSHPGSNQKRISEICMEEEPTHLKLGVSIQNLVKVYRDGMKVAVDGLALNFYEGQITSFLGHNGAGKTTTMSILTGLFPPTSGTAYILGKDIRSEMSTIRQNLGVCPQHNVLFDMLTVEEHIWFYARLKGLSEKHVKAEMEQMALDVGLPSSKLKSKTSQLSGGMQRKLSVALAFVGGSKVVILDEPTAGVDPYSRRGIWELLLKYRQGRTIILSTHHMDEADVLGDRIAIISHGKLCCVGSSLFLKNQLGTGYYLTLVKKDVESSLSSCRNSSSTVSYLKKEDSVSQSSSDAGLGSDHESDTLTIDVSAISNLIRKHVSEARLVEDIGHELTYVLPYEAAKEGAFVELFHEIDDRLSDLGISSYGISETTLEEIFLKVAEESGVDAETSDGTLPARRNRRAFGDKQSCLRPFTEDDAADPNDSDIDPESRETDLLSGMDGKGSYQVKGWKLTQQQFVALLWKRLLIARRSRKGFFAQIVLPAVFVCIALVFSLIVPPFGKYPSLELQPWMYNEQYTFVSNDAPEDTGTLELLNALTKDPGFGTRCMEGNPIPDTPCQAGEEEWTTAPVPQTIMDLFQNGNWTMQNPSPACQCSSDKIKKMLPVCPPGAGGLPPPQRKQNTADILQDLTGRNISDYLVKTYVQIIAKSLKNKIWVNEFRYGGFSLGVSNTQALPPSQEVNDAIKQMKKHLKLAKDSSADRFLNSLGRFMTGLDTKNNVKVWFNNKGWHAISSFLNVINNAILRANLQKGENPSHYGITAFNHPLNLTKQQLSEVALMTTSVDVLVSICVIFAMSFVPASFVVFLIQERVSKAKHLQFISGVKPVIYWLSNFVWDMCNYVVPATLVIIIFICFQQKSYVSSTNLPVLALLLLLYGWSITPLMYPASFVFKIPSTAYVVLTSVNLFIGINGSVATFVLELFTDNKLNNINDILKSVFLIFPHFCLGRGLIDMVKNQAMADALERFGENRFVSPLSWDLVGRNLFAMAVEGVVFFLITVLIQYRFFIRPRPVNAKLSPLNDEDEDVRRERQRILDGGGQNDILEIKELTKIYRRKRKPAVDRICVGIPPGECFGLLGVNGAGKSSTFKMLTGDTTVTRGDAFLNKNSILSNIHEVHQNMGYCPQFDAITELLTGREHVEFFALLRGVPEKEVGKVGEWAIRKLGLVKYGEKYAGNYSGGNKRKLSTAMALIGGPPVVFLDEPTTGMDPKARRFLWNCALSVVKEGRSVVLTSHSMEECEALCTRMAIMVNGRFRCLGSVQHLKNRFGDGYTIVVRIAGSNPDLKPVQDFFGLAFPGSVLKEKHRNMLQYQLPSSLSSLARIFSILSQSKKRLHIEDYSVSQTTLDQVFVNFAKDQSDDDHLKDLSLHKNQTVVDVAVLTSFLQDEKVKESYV

## Ac-DWFKAFYDKVAEKFKEAF-NH2 [4F, 4F apoA-I mimetic peptide, unmodified original]
ABCA1 [1]
  removing cell lipids by the ABCA1 pathway: mimic apoA-I

## Ac-DWLKAFYDKVAEKLKEAF-NH2 [2F, 2F apoA-I mimetic peptide, unmodified]
[2]
  ability to remove cholesterol by ABCA1-independent mechanism: significantly reduced
ABCA1 [3]
  ability to remove cholesterol by ABCA1-dependent mechanism: significantly reduced
ABCA1 [1]
  removing cell lipids by the ABCA1 pathway: mimic apoA-I
ABCA1 [4]; peptide treated 1 hour with a 25 molar excess of HOCl, versus untreated peptide
  ABCA1 dependent cholesterol efflux activity: significantly reduced

## Tyr192Phe apoA-I: Tyr192Phe mutant of human apoA-I made by PCR mutagenesis, bacterially expressed
[5]
  chlorination of residue 192 by HOCl: fails to chlorinate
ABCA1 [4]
  cholesterol efflux promoted: significantly decreased
ABCA1 [4]; by either HOCL or the MPO system
  protective effect against apoA-I inactivation: only a small protective effect
ABCA1 [4]; increasing H2O2 in the complete MPO system, then incubated with PilB
  ability to promote cholesterol efflux: nearly the same as that of native apoA-I
ABCA1 [4]; no oxidant, increasing protein concentrations
  rates of cholesterol efflux compared with native apoA-I: virtually identical
ABCA1 [4]; when the concentration of H2O2 was high
  resistance to oxidative inactivation by MPO: somewhat resistant

## apoA-I: mature form of wild type human apoA-I, 243 amino acid polypeptide, purified from HDL
[6]; increasing concentrations of HOCl
  higher molecular weight species on SDS-PAGE: generated higher molecular weight species that were resistant to SDS
[6]; increasing concentrations of acrolein
  higher molecular weight species on SDS-PAGE: generated higher molecular weight species that were resistant to SDS
[6]; nitrated by reagent ONOO- or the complete MPO/H2O2/NO2 system
  higher molecular weight species on SDS-PAGE: not observed
[7]
  mean residue molar ellipticity at 222 nm: concentration-dependent increase
[8]; chlorination by HOCl or the complete MPO system, versus untreated apoA-I
  thioflavin T binding: markedly increased
[8]; nitrated apoA-I
  amyloid-like structures: failed to reveal amyloid-like structures
[8]; untreated apoA-I
  amyloid-like structures: no detectable amyloid-like structures
[9]
  ability to activate LCAT: looses its ability to activate LCAT; also recorded: loss of its ability
ABCA1 [4]; acrolein-treated apoA-I
  correlation (R) of impaired cholesterol removal with adduction of K226: 0.988
ABCA1 [4]; after nitration of apoA-I (H2O2 with MPO plus NO2)
  cholesterol efflux activity: fails to affect; also recorded: only a small inhibitory effect
ABCA1 [4]
  cholesterol efflux promoted: significantly decreased
ABCA1 [4]; apoA-I treated 1 hour with increasing concentrations of HOCl or of H2O2 with the complete chlorinating MPO system
  cholesterol efflux activity: progressively and extensively impaired
ABCA1 [4]; apoA-I treated 24 hours with increasing concentrations of acrolein
  ability to remove cellular cholesterol by the ABCA1 pathway: progressively impaired
ABCA1 [4]; apoA-I treated with ONOO-
  cholesterol efflux activity: no effect
ABCA1 [4]; complete MPO system with increasing H2O2 or increasing HOCl, then PilB to reduce Met(O) back to Met
  ability to promote cholesterol efflux: partially restored
ABCA1 [10]
  cholesterol efflux activity: progressively and extensively impaired
